Results from the supplement of paper PMC10065799, “High-throughput profiling of sequence recognition by tyrosine kinases and SH2 domains using bacterial peptide display” (eLife, 2023).

test system: AncSZ; assay: phosphorylation enrichment, bacterial display (enrichment ratio); higher = better substrate or ligand; peptides without Tyr show the background
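Also: 11-residue human phosphosite peptides and single-mutation variants displayed on the E. coli surface, counted by deep sequencing, each peptide's frequency after selection divided by its frequency in the unselected input library; frequency after pTyr selection over input frequency; kinase dosed for 20-30% of maximal phosphorylation in three min.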

| Sequence | phosphorylation enrichment |
| --- | --- |
| AGQEDDDRLRP [RAC1_Y64_Y64D] | 1.15 |
| EPNSRYTCKLE [USH2A_Y3745_Y3747C] | 1.02 |
| RAEAPYLLVSN [LRIG1_Y1054_Q1053P] | 0.655 |
| SEDSEYYRAFE [CASQ2_Y178_K180R] | 2.7 |
| CEHRGCLFLAI [TEK_Y897_Y897C_YF] | 1.02 |
| NPQKSYFIRLY [WAS_Y83] | 1.16 |
| RAHARYCADAC [ACOT4_Y52_R57C] | 0.601 |
| KRPAVYIDEEA [EPM2A_Y304] | 1.07 |
| KRLAVYIDEEA [EPM2A_Y304_P301L] | 1.11 |
| VVDVTYDDVPI [FLNB_Y1308_E1305D] | 1.38 |
| ESKKHYGFSLF [ANXA3_Y295_F291S_YF] | 1.01 |
| DLLMQHPKAQG [FAM83C_Y600_Y600H] | 0.566 |
| WHHTFYNELCV [ACTC1_Y93_R97C] | 1.19 |
| TVQVAYYTVMM [SPATA17_Y83_M86V] | 1.52 |
| PKSWNYELPAT [PROM1_Y34_A31S] | 2.37 |
| LEKISYVFMKR [SSX7_Y48_YF] | 1.9 |

| Sequence | phosphorylation enrichment |
| --- | --- |
| CLAKMYFSAVE [CP_Y539_D544E_YF] | 1.22 |
| GEAEQYVGGGG [FAT4_Y4980] | 0.842 |
| EGTATYAAAIL [JUP_Y644_V648I] | 0.857 |
| SGVSYYINLCQ [IGF2R_Y2025_N2020S] | 1.01 |
| GLDGSYLLTDS [SH2D1A_Y29_R32T] | 0.864 |
| NYRPGYNNFYN [USH2A_Y467] | 0.697 |
| VDTLWYKFLKR [EPM2A_Y86_F84L] | 0.868 |
| GGEEFYVHFVG [KAT8_Y90_R86G_YF] | 1.34 |
| RKVAQYMLENE [SLC16A6_Y224_E221V] | 0.876 |
| FRDMDYRSFPH [RBM10_Y41_R46H_YF] | 0.55 |
| SKHRLYSDLQT [PTCHD1_Y84] | 0.5 |
| NCLRQYVAGRF [CRB1_Y711_E710Q] | 0.993 |
| KSEMSYIDGEK [SORBS1_Y485] | 0.899 |
| GFAGKYIAMVM [CYP19A1_Y441_C437Y_YF] | 0.694 |
| YSIDHYLGKEM [G6PD_Y202_R198S] | 0.773 |
| PDDPDYSLVDD [PSTPIP2_Y323_N322D] | 1.76 |

test system: c-Src; assay: as above

| Sequence | phosphorylation enrichment |
| --- | --- |
| AGQEDDDRLRP [RAC1_Y64_Y64D] | 0.46 |
| EPNSRYTCKLE [USH2A_Y3745_Y3747C] | 0.539 |
| RAEAPYLLVSN [LRIG1_Y1054_Q1053P] | 1.79 |
| SEDSEYYRAFE [CASQ2_Y178_K180R] | 0.824 |
| CEHRGCLFLAI [TEK_Y897_Y897C_YF] | 0.282 |
| NPQKSYFIRLY [WAS_Y83] | 0.349 |
| RAHARYCADAC [ACOT4_Y52_R57C] | 0.41 |
| KRPAVYIDEEA [EPM2A_Y304] | 0.542 |
| KRLAVYIDEEA [EPM2A_Y304_P301L] | 0.578 |
| VVDVTYDDVPI [FLNB_Y1308_E1305D] | 1.05 |
| ESKKHYGFSLF [ANXA3_Y295_F291S_YF] | 0.453 |
| DLLMQHPKAQG [FAM83C_Y600_Y600H] | 0.646 |
| WHHTFYNELCV [ACTC1_Y93_R97C] | 0.73 |
| TVQVAYYTVMM [SPATA17_Y83_M86V] | 2.09 |
| PKSWNYELPAT [PROM1_Y34_A31S] | 0.448 |
| LEKISYVFMKR [SSX7_Y48_YF] | 0.581 |
| CLAKMYFSAVE [CP_Y539_D544E_YF] | 0.721 |

| Sequence | phosphorylation enrichment |
| --- | --- |
| GEAEQYVGGGG [FAT4_Y4980] | 0.327 |
| EGTATYAAAIL [JUP_Y644_V648I] | 1.25 |
| SGVSYYINLCQ [IGF2R_Y2025_N2020S] | 0.33 |
| GLDGSYLLTDS [SH2D1A_Y29_R32T] | 0.469 |
| NYRPGYNNFYN [USH2A_Y467] | 0.516 |
| VDTLWYKFLKR [EPM2A_Y86_F84L] | 0.366 |
| GGEEFYVHFVG [KAT8_Y90_R86G_YF] | 0.501 |
| RKVAQYMLENE [SLC16A6_Y224_E221V] | 0.389 |
| FRDMDYRSFPH [RBM10_Y41_R46H_YF] | 0.436 |
| SKHRLYSDLQT [PTCHD1_Y84] | 0.371 |
| NCLRQYVAGRF [CRB1_Y711_E710Q] | 0.444 |
| KSEMSYIDGEK [SORBS1_Y485] | 0.449 |
| GFAGKYIAMVM [CYP19A1_Y441_C437Y_YF] | 0.599 |
| YSIDHYLGKEM [G6PD_Y202_R198S] | 0.538 |
| PDDPDYSLVDD [PSTPIP2_Y323_N322D] | 0.648 |
| LSDGPYSNPYE [EPOR_Y485] | 3.36 |

target: Fyn (UniProt P06241); assay: as above
Sequence (P06241 whole entry, looked up): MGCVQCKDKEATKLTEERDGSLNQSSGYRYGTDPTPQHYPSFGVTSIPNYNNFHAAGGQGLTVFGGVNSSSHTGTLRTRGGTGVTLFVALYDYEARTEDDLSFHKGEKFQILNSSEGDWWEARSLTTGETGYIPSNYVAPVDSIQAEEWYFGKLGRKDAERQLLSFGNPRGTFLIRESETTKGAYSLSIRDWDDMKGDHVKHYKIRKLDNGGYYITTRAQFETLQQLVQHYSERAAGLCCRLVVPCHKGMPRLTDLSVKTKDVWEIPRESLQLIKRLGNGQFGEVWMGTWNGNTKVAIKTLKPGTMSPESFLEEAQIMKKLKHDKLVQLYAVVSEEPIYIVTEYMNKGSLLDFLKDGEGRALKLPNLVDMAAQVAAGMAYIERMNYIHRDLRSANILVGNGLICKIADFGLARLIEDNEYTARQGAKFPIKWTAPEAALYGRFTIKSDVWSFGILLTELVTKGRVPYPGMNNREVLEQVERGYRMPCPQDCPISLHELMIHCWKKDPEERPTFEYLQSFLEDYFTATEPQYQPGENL

| Sequence | phosphorylation enrichment |
| --- | --- |
| AGQEDDDRLRP [RAC1_Y64_Y64D] | 0.608 |
| EPNSRYTCKLE [USH2A_Y3745_Y3747C] | 0.563 |
| RAEAPYLLVSN [LRIG1_Y1054_Q1053P] | 0.654 |
| SEDSEYYRAFE [CASQ2_Y178_K180R] | 0.823 |
| CEHRGCLFLAI [TEK_Y897_Y897C_YF] | 0.334 |
| NPQKSYFIRLY [WAS_Y83] | 0.372 |
| RAHARYCADAC [ACOT4_Y52_R57C] | 0.344 |
| KRPAVYIDEEA [EPM2A_Y304] | 0.567 |
| KRLAVYIDEEA [EPM2A_Y304_P301L] | 0.601 |
| VVDVTYDDVPI [FLNB_Y1308_E1305D] | 1.04 |
| ESKKHYGFSLF [ANXA3_Y295_F291S_YF] | 0.513 |
| DLLMQHPKAQG [FAM83C_Y600_Y600H] | 0.509 |
| WHHTFYNELCV [ACTC1_Y93_R97C] | 0.574 |
| TVQVAYYTVMM [SPATA17_Y83_M86V] | 1.59 |
| PKSWNYELPAT [PROM1_Y34_A31S] | 1.13 |
| LEKISYVFMKR [SSX7_Y48_YF] | 0.963 |

| Sequence | phosphorylation enrichment |
| --- | --- |
| CLAKMYFSAVE [CP_Y539_D544E_YF] | 0.822 |
| GEAEQYVGGGG [FAT4_Y4980] | 0.465 |
| EGTATYAAAIL [JUP_Y644_V648I] | 1.25 |
| SGVSYYINLCQ [IGF2R_Y2025_N2020S] | 0.38 |
| GLDGSYLLTDS [SH2D1A_Y29_R32T] | 0.423 |
| NYRPGYNNFYN [USH2A_Y467] | 0.567 |
| VDTLWYKFLKR [EPM2A_Y86_F84L] | 0.411 |
| GGEEFYVHFVG [KAT8_Y90_R86G_YF] | 0.58 |
| RKVAQYMLENE [SLC16A6_Y224_E221V] | 0.716 |
| FRDMDYRSFPH [RBM10_Y41_R46H_YF] | 0.419 |
| SKHRLYSDLQT [PTCHD1_Y84] | 0.376 |
| NCLRQYVAGRF [CRB1_Y711_E710Q] | 0.477 |
| KSEMSYIDGEK [SORBS1_Y485] | 0.502 |
| GFAGKYIAMVM [CYP19A1_Y441_C437Y_YF] | 0.453 |
| YSIDHYLGKEM [G6PD_Y202_R198S] | 0.568 |
| PDDPDYSLVDD [PSTPIP2_Y323_N322D] | 0.569 |

target: EPHB1 (UniProt P54762); assay: as above
Sequence (P54762 whole entry, looked up): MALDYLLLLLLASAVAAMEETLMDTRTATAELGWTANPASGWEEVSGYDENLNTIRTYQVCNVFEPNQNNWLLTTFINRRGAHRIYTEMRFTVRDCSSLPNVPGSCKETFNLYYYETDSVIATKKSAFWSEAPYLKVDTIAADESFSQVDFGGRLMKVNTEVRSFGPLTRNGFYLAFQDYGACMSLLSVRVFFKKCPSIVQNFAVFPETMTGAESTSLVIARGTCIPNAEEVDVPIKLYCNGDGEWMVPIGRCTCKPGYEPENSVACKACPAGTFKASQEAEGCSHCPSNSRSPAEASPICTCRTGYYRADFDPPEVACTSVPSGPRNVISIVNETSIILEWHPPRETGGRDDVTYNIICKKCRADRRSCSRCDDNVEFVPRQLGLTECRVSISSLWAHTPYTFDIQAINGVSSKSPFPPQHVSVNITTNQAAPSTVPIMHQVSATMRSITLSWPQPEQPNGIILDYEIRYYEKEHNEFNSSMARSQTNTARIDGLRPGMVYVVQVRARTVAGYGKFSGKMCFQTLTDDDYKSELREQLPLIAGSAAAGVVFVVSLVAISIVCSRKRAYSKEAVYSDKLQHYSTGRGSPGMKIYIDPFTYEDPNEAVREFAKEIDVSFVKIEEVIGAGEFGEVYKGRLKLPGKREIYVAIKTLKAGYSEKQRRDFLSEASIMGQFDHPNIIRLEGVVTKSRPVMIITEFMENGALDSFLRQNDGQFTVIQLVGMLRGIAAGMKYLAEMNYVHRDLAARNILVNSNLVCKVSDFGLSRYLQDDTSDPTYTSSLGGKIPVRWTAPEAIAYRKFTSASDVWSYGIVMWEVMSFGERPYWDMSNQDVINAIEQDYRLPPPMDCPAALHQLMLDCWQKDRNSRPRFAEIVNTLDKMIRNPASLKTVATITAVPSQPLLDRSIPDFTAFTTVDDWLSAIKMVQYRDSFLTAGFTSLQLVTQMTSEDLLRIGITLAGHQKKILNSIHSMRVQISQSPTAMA

| Sequence | phosphorylation enrichment |
| --- | --- |
| AGQEDDDRLRP [RAC1_Y64_Y64D] | 0.497 |
| EPNSRYTCKLE [USH2A_Y3745_Y3747C] | 0.556 |
| RAEAPYLLVSN [LRIG1_Y1054_Q1053P] | 0.4 |
| SEDSEYYRAFE [CASQ2_Y178_K180R] | 0.67 |
| CEHRGCLFLAI [TEK_Y897_Y897C_YF] | 0.554 |
| NPQKSYFIRLY [WAS_Y83] | 0.61 |
| RAHARYCADAC [ACOT4_Y52_R57C] | 0.402 |
| KRPAVYIDEEA [EPM2A_Y304] | 0.547 |
| KRLAVYIDEEA [EPM2A_Y304_P301L] | 0.665 |
| VVDVTYDDVPI [FLNB_Y1308_E1305D] | 2.21 |
| ESKKHYGFSLF [ANXA3_Y295_F291S_YF] | 0.574 |
| DLLMQHPKAQG [FAM83C_Y600_Y600H] | 0.515 |
| WHHTFYNELCV [ACTC1_Y93_R97C] | 0.793 |
| TVQVAYYTVMM [SPATA17_Y83_M86V] | 2.96 |
| PKSWNYELPAT [PROM1_Y34_A31S] | 1.67 |
| LEKISYVFMKR [SSX7_Y48_YF] | 1.65 |

| Sequence | phosphorylation enrichment |
| --- | --- |
| CLAKMYFSAVE [CP_Y539_D544E_YF] | 0.589 |
| GEAEQYVGGGG [FAT4_Y4980] | 0.394 |
| EGTATYAAAIL [JUP_Y644_V648I] | 0.884 |
| SGVSYYINLCQ [IGF2R_Y2025_N2020S] | 0.682 |
| GLDGSYLLTDS [SH2D1A_Y29_R32T] | 0.491 |
| NYRPGYNNFYN [USH2A_Y467] | 0.616 |
| VDTLWYKFLKR [EPM2A_Y86_F84L] | 0.46 |
| GGEEFYVHFVG [KAT8_Y90_R86G_YF] | 0.747 |
| RKVAQYMLENE [SLC16A6_Y224_E221V] | 0.612 |
| FRDMDYRSFPH [RBM10_Y41_R46H_YF] | 0.442 |
| SKHRLYSDLQT [PTCHD1_Y84] | 0.443 |
| NCLRQYVAGRF [CRB1_Y711_E710Q] | 0.39 |
| KSEMSYIDGEK [SORBS1_Y485] | 0.72 |
| GFAGKYIAMVM [CYP19A1_Y441_C437Y_YF] | 0.41 |
| YSIDHYLGKEM [G6PD_Y202_R198S] | 0.509 |
| PDDPDYSLVDD [PSTPIP2_Y323_N322D] | 1.13 |
